Test: soluble on expression in E. coli; label from the status in PepcDB or PDB records

Sequence | soluble on expression in E. coli
MRTLFIGDLHLSADRLDITQAFNRFLDTELDDADALYILGDLFEVWVGDDLAAPFALELAHKLKQVSQTLPIFFIHGNRDFMLGKRFAEAAGMQLLPEVTCIELYGVKTVILHGDSLCTLDKAYQRFRKLRSFACARWLYSCLPKKRRQAIANKIRSNSQSSNQQKSYVIMDVEPSAVNALFVKTHTTRMIHGHTHRPAIHIVDNACQRIVVGDWYEQGSVLSVSANGVDLKSLPFETTLEHHHHHH | not soluble
MNFIYPAVIAAVQEGEKAWGTTHPNPPVGAVVLSSNGSIVGRGHTQPPGGSHAEIMALRQAGENTKGGTLVVTLEPCNHWGRTGPCSHAISESGIEHVVYLMQDTGSLEKGGAEYLRRQGLKVTFLGLSVAALIPWQASKDRGWPYVVGKTAHTLDGFVAAEDHSSKWITGSASRDYANRQRRHFDAIIVGTGTVKADNPALTARKDDGTLLPHQPLKVVIGTSKISEGTQLARSGFVQFSTIEEALVQLWDRGVRYVLVEGGPHLLHGFLTSGNLDQLHSYSAPMLLTRGVSLLQEEEKKSAESANTTIASALRGSPQSISMLGDDILQVINI | not soluble
MGHHHHHHSHMDTPENVLQMLEAHMQSYKGNDPLGEWERYIQWVEENFPENKEYLITLLEHLMKEFLDKKKYHNDPRFISYCLKFAEYNSDLHQFFEFLYNHGIGTLSSPLYIAWAGHLEAQGELQHASAVLQRGIQNQAEPREFLQQQYRLFQTRLTETHLPAQAR | not soluble
MGHHHHHHSHMPKVYGSLIDTETRCRHYFTEEDIIAIKFKCCNKYYPCYKCHNEFEKHAIKRWSEPSFNEKAILCGVCKHELTINEYMMVERCPNCQSRFNNRCKYHYHIYFEI | soluble
MFFIKDLSLNITLHPSFFGPRMKQYLKTKLLEEVEGSCTGKFGYILCVLDYDNIDIQRGRILPTDGSAEFNVKYRAVVFKPFKGEVVDGTVVSCSQHGFEVQVGPMKVFVTKHLMPQDLTFNAGSNPPSYQSSEDVITIKSRIRVKIEGCISQVSSIHAIGSIKEDYLGAI | soluble
MVPPTINTGKNITTERAVLTLNGLQIKLHKVVGESRDDIVAKMKDLAMDDHKFPRLPGPNPVSIERKDFEKLKQNKYVVSEKTDGIRFMMFFTRVFGFKVCTIIDRAMTVYLLPFKNIPRVLFQGSIFDGELCVDIVEKKFAFVLFDAVVVSGVTVSQMDLASRFFAMKRSLKEFKNVPEDPAILRYKEWIPLEHPTIIKDHLKKANAIYHTDGLIIMSVDEPVIYGRNFNLFKLKPGTHHTIDFIIMSEDGTIGIFDPNLRKNVPVGKLDGYYNKGSIVECGFADGTWKYIQGRSDKNQANDRLTYEKTLLNIEENITIDELLDLFKWE | soluble
MPAHQLSDDRAIQGTFMRKRRDSLASVVARDLAGRIERGDYAVGDKIPIEAQLCEMYNVSRTVVREAIATLRSEGLVTSRHGVGVFVEERGNPALSITREAAGELSEVLELLELRLGVEVEAAGLAARRATAEDLRQIREVLEKTDDLEAFAEHRRELDYAFHLAIARASGNSWMPKFMDFIGPVIIPRSQLLHDPQSGITGDYLRQMVEEHRQIVEAIAAGEAAAAQEAMRMHLSTSLERYRRRLTDA | not soluble
MAESYEEWKSFALKLDEETGAQEWKFDNSSPYFDAELISYRYTLLKRYRQQHRTLDLIYLLKEGLTYDIANIGHPMLFAATHVGTKKLIEDYIEEVSQSLAYIASSECITFQRKEKIEFFENCEKAYGQPALMFSGGATLGLFHTGVCKALIEQDLMPKVLSGSSAGAIMTGMLGISASEDIQNLLNGEQFFSDAFHFRKLRELIKGNGGIADVHYLKKFLIENLGDLTFEEAFKKSGLNINVAVAPYDATENPRIMNAIMTPNVLVWSAVLASCAVPVLFPPVRLTSKRYDGEHTPYMANTKWVDGSVRSDFPQERMARLYNLNYTIASQVNPHVVPFMQDDARRFRKDVLSWPERILRRQGKVLSMGLMDFTRQRLGAISPVRRLLDHGYGVVGQRYYGDVNIIAKYSLKHYAYTLQNPRPHLFKRLQREGERATWPKISSIETHARIGKTIQHCLEVLRFEEKKLEHHHHHH | not soluble
MSSAPPAPRVIAVVGPTAAGKSDLGVFLAQRLGGEVVNADSMQLYRGMDIGTAKLTPEERGGVPHHLLDIWDVTVTASVAEYQRLARERIDALLAEGRWPILVGGSGLYVRGAVDNLEFPGTDPGIRARLEEELELRGPGALHARLAVADPEAARAILPSNGRRIVRALEVIEITGRPFTANLPGHDSVYDTVQIGVDVARPELHERIALRVDRMWEAGLVDEVRALEAQGLREGRTASRALGYQQVLAALAGECTLDEARAETVRATKRFARRQDSWFRRDPRVHWLSGGVADRTELPRLALSLVERPVTALEHHHHHH | not soluble
MGSDKIHHHHHHMKKYHYSQAPLPFVGQKRMFASEFRKVLKRFSDRTVFVDLFGGSGLLSHITKRERPDATVIYNDHDNYRERLENISRTNALLSDLRRLSEGIPRHRMLSKKMHGMFLERIRREESTGFVDYLTISSSLLFSGKYARNIGELGKLNFYNNMRLSDYCCEGYLDGLEVVYCDYRELVDRYRDSPDVVFLIDPPYMATDISTYRMDWKLTDYLDVLLVLEGHPFIYFTSGKSPILDFCRWMEEHPETGNPFKGAGISTLTARMNYSSSYTDIMLYKEMTEAA | not soluble
MVEEICHICNDKSTGKHYGAISCDGCKGFFRRSIRKRYHYQCRFEQNCDVTKNKRNACRACRLQKCVKAGMKSNAIQNERDAIGKRKKTTGAEKEDLIDQLVAAETLCQQLRSSVIKNTSSLAPYDCGKVKWNYEDARAATLDDIGKSIHQQLVLFIEWAKSLPQFSFLAQADQAALLKGGAASIIVLGVAYRSICLTVENTICLANDTLLPKEHATQVGDINCVVGRIIDEIVNPMRRLNMDLIEYVALKAILFFNPVVREINDQSPVENARYAFLRSLQRRCTDKALENMEDESMDCRSGKLLLLLPSLQAIAQQLVEDVQLARLFGLVNVDSLMEELILNDMKPSDPQILQTSLASPVNSSVKAEVELEE | soluble
MSLSSLDAVLSQDLIVADGPAVEVGDSLEVAYTGWLFQNHVLGQVFDSTANKDKLLRLKLGSGKVIKGWEDGMLGMKKGGKRLLIVPPACAVGSEGVIGWTQATDSILVFEVEVRRVKFAREGHHHHHH | not soluble
MAHHHHHHMQAITASTPSQQYSVGAGIEKPLGVTTSADWMTMYERKPHGNSTLFELEAMVAKRMEFLAWVDQQINSPQAKNFDSVLDAIIARLPEERRSSAATDGSRVKMISLGYDETAAGGCSDRRSSSRGSTGSAAGANQAASIVFAPEEDVTSHLLCRFAFCMSERWRDWLVRTERVLLTARIKMEMAKRPFTFLVDLMKRNGLPCAPLTDKQLADPMLQEYLEYRRVKAESARESEGRVENYYAVPLSLATRLIKKRYVLCRAGQAILFRDQVQEVFLTVFCARLNRGLHNAYLARVKQQALEEETAKSTVMAMLDAFLQQFISDPVDTLQEGVAGSVRARDVQRLAQAHFPPCMRAIDWHLRREGHLKHHGRFMYGLFLKSIGLSLEDSLELFATLMKVKGGGSVEAFAKTAYGYNVRHNYGMEGKKMSYSSASCATILGLPPVVDQHDCHGCPFRFRDEGALRTMLGKETENPKGCDYPSVRPTPGDIEDIVSDSKAQHYTRACYKYFMATHPGARRDTLFRSPYEYYSVSLEFETPSDGTESARPSAVPGKRTSVVLNEDVLRFRTSP | not soluble
MRGSHHHHHHGMASMTGGQQMGRDLYDDDDKDPMSVIKPDMKIKLRMEGAVNGHPFAIEGVGLGKPFEGKQSMDLKVKEGGPLPFAYDILTTVFCYGNRVFAKYPENIVDYFKQSFPEGYSWERSMNYEDGGICIATNDITLDGDCFIYEIRFDGVNFPANGPVMQKRTVKWEPSTEKLYVRDGVLKGDVNMALLLEGGGHYRCDFKTTYKAKKVVQLPDYHFVDHRIEIKSHDKDYNNVNLHEHAEAHSGLPRQAK | soluble
MTSIHSPVTRKEDTELKRPDLRGKFVCSSCSQNFQHSASLNRHRQLMHSNEHTCMMCERALNQKETIREHMRNEHNLAQVFTCGCCNWTFASKRQLTEHTKCIQGTGAPGDTIPIAKSINAPGSLIQSTIQGTPPVVKTGRKRPMGGSLSPSSSVSTSISSRDASGSPPPTEEEAERKVLFDNAVDTILQSKFFTYQQITEVDTWVKIIESANTLADTLQRIKKSQKVKAEGPAVESKMIPEKHVKQEIE | not soluble
MGSDKIHHHHHHAQFKIGGKKINVGKVVQAGSDAAKAITLSDSDIAAMSKEYMQWMDTHNPLTAADSEYGKRLEKLTGHIKEVDGLKVNFGVYEVVDVNAFACGDGSVRICAGLMDIMTDDEVMAVVGHEIGHVIHTDSKDAMKSAYLRSAVKNAAGAASSTVSKLTDSELGAMAEALAGAQYSQKQESEADDYGFEFSIKHNIDPYAMYNALNKLLELSAEAPKESKFQKMFSSHPDTAKRVARAKEKADNYTKNK | not soluble
MGYESMLADIKSSLNGKISDVEDKIEKLKKAKKDIDTLQEEAITEIKEIVKPELGKHWTGTKADDFDKGREEAKSEASKIVNDKYNEYMASINGKIFDLEWDKAKYASELFIANGAADLLKKGEEFAEEVGNTISKLKWWLEHHHHHH | soluble
MSDAFLSSIKNRRTIYALDKQLPVSQEKIVELVKEAVSHSPSAFNSQSSRVVVLFGAEHEQFWNIAKDELKKIVPADAFAATETKLNSFAAGAGTVLFFEDQTVVRQLQEQFALYADNFPVWSEQASGMAQFAVWTALAEHKVGASLQHYNPLVDAQTHKTWNLPESWKLRAQMPFGAIAAPAGEKAFIAESERFKVFGN | not soluble
MIERLLEIKKIRADRADKAVQRQEYRVANVAAELQKAERSVADYHVWRQEEEERRFAKAKQQTVLLKELETLRQEIALLREREAELKQRVAEVKVTLEQERTLLKQKQQEALQAHKTKEKFVQLQQQEIAEQSRQQQYQEELEQEEFRTVDIIAAALEHHHHHH | soluble
MLGLRRKVRIETERMTLRLPAHSDWRDWAALRAESATFLTPWEPVWSSDHLSRKAFTNRVYWAARAESQGTALPVLLIRREDQALLGAITLDNIRRGPAQSGTLGYWIGRPHARQGYMREAIQGIVHHAFTAMDVSRIEAACLPENAASRGVLEKCGFKYEGVAQSYLQIAGRWRNHVLYANLRGDRRGRTDAG | not soluble
REEVRVVVGAERTELLLPLLRDKRVALVANATSVVGTEREHLLDNLLRQGVNVVKILGPEHGFRGDADAGATVKDERDVRTGIPIVSLYGKNKKPTPRMLADVDVLLFDMQDVGTRFFTYISTLHYVMEACAEEQKKLIVTDRPNPNDYVDGPILQDDCRSFVGVDPLPILHGLTIGELANMINGEGWLGKKEMKCDLTVVPMSGWKHGQEYALPVKPSPNLPTANAIAWYPSLCLFEATIMSVGRGTDFPFEVLGYPKKVFGSFVFVPRPIRGMDSNPLYKGRHCYGVDLRGEKAPRGLSLQLLIRYYQTARREGIKFVNRKQMFNLLAGTKELAQQIEKGRTEEQIRASWQSDLDKYHKLRKKYLLY | not soluble
VRVLSYDKEKLNWLYKDPQGLVQGPFSLTQLKAWSDAEYFTKQFRVWMTGESMESAVLLTDVLRL | soluble

— the DeepSol protein solubility set
